Changes are numbered by the printed parent chain.
B1: 369_G07 (antibody, V domains shown)
VH: EVQLLESGGGLVQPGGSLRLSCAASGFTFSSYSMNWVRQAPGKGLEWVAGINYNGGYTSYADSVKGRFTISRDNSKNTLYLQMNSLRAEDTAVYYCARSATWHDTHLDYWGQGTLVTVSS
VL: DIQMTQSPSSLSASVGDRVTITCRASQSILTYVNWYQQKPGKAPKLVIYAATSRASGVPSRFSGSGSGTDFTLTISSLQPEDFATYYCQQSYDNPLTFGGGTKVEIK
notes: VH/VL only
B2: 370_A06 (antibody, V domains shown)
VH: B1 VH with G50S, G55S, T58K
VL: B1 VL with L30V, V33L, R54L, N94L
notes: VH/VL only
B3: 370_B05 (antibody, V domains shown)
VH: B1 VH with S33G, G50S
VL: B1 VL with D93E
notes: VH/VL only
B4: 370_C04 (antibody, V domains shown)
VH: B1 VH with S33G, G50S, G55S
VL: B1 VL with T31S, V33L, V47L, T52S, R54L, A55Q, D93E
notes: VH/VL only
B5: 370_E07 (antibody, V domains shown)
VH: B1 VH with S30D, G50N, S59G
VL: B1 VL with V33L, V47L
notes: VH/VL only
B6: 370_F08 (antibody, V domains shown)
VH: B1 VH with S30D
VL: B1 VL with L30I, T31S, V47L, A55H, D93N, N94L
notes: VH/VL only
B7: 370_G12 (antibody, V domains shown)
VH: B1 VH with T58K, S59G, H106A
VL: B1 VL with L30I, V33L, V47L, R54L, Y92D, D93E, N94S
notes: VH/VL only
B8: 370_H03 (antibody, V domains shown)
VH: B1 VH with S30D, G55S, T58K, S59G
VL: B1 VL with V33L, V47L, R54L, N94T
notes: VH/VL only
B9: 371_C09 (antibody, V domains shown)
VH: B1 VH with S30D, A49S, T58K
VL: B1 VL with V47L, T52S, R54L, A55Q
notes: VH/VL only
B10: 371_D03 (antibody, V domains shown)
VH: B1 VH with S30D, S33G, G50N, H106A
VL: B1 VL with R54L, D93N, N94T
notes: VH/VL only
B11: 371_F05 (antibody, V domains shown)
VH: B1 VH with G55S, T58K
VL: B1 VL with T31S, V33L, V47L, A55H, D93E
notes: VH/VL only
B12: 371_G03 (antibody, V domains shown)
VH: B1 VH with S33G, G50N, T58K, S59G
VL: B1 VL with L30V, R54L, D93N, N94L
notes: VH/VL only
B13: 371_H01 (antibody, V domains shown)
VH: B1 VH with S30D, S59G
VL: not shown
notes: VH/VL only
B14: 372_D04 (antibody, V domains shown)
VH: B1 VH with G50N, G55S, S59G
VL: B1 VL with V33L, V47L, R54L, A55H, N94L
notes: VH/VL only

Target: T1, biotinylated goat anti-human kappa light chain
T1 construct: Positive control of the ELISA
Assay: ELISA; positive control
Method in brief: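 Monoclonal antibodies were first applied to human or mouse ACVR2A, alongside biotinylated goat anti-human kappa light chain (positive control) and human Fc (negative control); binding was then determined by ELISA.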
Further: test concentration or dose not given here.

Going from B1 to B2, the optical density rises from 2.98 OD to 3.47 OD.

Going from B3 to B4, the optical density rises from 3.49 OD to 3.6 OD.

First: B5
Second: B6
The optical density of the first is lower: 3.45 OD for the first, 3.59 OD for the second.

Going from B7 to B8, the optical density rises from 3.52 OD to 3.56 OD.

Compared with B9, B10 is higher in optical density: 3.39 OD for the first, 3.57 OD for the second.

Compared with B11, B12 is higher in optical density: 3.33 OD for the first, 3.59 OD for the second.

Compared with B13, B14 is lower in optical density: 3.69 OD for the first, 3.38 OD for the second.

Target: human ACVR2A (human, UniProt P27037 20-135, limits assumed)
Assay: ELISA
Method in brief: (§1)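 ELISA measured binding of ACVR2A-specific monoclonal antibodies to human and mouse ACVR2A. Biotinylated goat anti-human kappa light chain served as positive control and human Fc as negative control.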

human ACVR2A, sequence (P27037 20-135 limits assumed): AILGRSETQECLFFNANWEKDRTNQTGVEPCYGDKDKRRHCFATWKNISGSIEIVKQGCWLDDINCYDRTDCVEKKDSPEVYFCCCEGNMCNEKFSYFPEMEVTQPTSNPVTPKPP

First: B1
Second: B2
The optical density of the first is higher: 3.32 OD for the first, 2.59 OD for the second.

First: B3
Second: B4
The optical density of the first is higher: 2.84 OD for the first, 2.32 OD for the second.

First: B5
Second: B6
The optical density of the first is higher: 3.44 OD for the first, 2.34 OD for the second.

Going from B7 to B8, the optical density rises from 1.34 OD to 3.43 OD.

First: B9
Second: B10
The optical density of the first is higher: 3.37 OD for the first, 1.54 OD for the second.

Going from B11 to B12, the optical density rises from 2.89 OD to 3.12 OD.

First: B13
Second: B14
The optical density of the first is lower: 3.03 OD for the first, 3.4 OD for the second.

Target: mouse ACVR2A (mouse, UniProt P27038 20-135, limits assumed)
Assay: ELISA
Method in brief: as §1

mouse ACVR2A, sequence (P27038 20-135 limits assumed): as the sequence (P27037 20-135 limits assumed) above, with K20R, V73I counted along it

Compared with B1, B2 is lower in optical density: 3.37 OD for the first, 2.77 OD for the second.

Compared with B3, B4 is lower in optical density: 3.11 OD for the first, 2.63 OD for the second.

First: B5
Second: B6
The optical density of the first is higher: 3.5 OD for the first, 2.99 OD for the second.

First: B7
Second: B8
The optical density of the first is lower: 1.6 OD for the first, 3.56 OD for the second.

Compared with B9, B10 is lower in optical density: 3.29 OD for the first, 1.83 OD for the second.

Going from B11 to B12, the optical density rises from 3.15 OD to 3.27 OD.

Going from B13 to B14, the optical density rises from 3 OD to 3.41 OD.
